Patent US9927440B2, “Protein engineering” (priority 2009, dated 2018)
Like-named read-outs stand apart in the source and are kept apart here.

Legend:
[1] = molecular target: T1, Staphylococcal nuclease (SN) (Staphylococcus aureus, UniProt P00644, L118C/Q162N); assay type: binding; conditions: 1 mM Ca2+; 35.3 °C
T1 construct: made in house; host or cells: cell-free TnT, E. coli BL21 Star (DE3) extract
Procedure: (§1) The rate of labeling of internal cysteine residues was measured by reacting 30-50 μL of ˜0.1 μM protein sample (i.e., ˜3-5 picomoles of protein) with excess IAM-biotin (1 mM unless otherwise stated) at constant temperature (25 mM MOPS, 100 mM KCl and pH 7.6). 5 μL aliquots were removed at fixed time intervals and quenched by addition of 2 μL 2M β-mercaptoethanol (Sigma; M6250). Following addition of 5 μL LDS-buffer (Invitrogen; NP0007) and heating for 2 min at 85° C., (un)labeled protein species were resolved by SDS-PAGE (Novex 4-12% Bis-Tris Gels; Invitrogen; NP0321). […] For the experiment shown in FIG. 8A, ecRBP variant L62C was modified with 1 mM IAM-biotin at 47.1° C., pH 7.6. […] Streptavidin was used to alter the electrophoretic mobility of the labeled protein (Streptavidin bands indicated by a, b, and c). […] Error bars represent the estimated uncertainty of the integrated band intensities (˜2%). For the experiment shown in FIG. 8B, SN variant L36C was labeled with IAM-biotin at 35.3° C., pH 7.6. […] At 29.3° C., 26.3° C. and 23.3° C., kint and klabel were manipulated by increasing the concentration of IAM-biotin from 1 mM to 3.16 mM.
(§2) The modulation of protein stability by binding of metals, ligands, activators, inhibitors, substrates, nucleic acid or other proteins can be used to measure binding affinities within a GUWO. For a protein with a single binding site, the free energy of ligand binding was described by
(§3) [formula] where P was the binding polynomial, [L] the total ligand concentration, and KD the apparent dissociation constant of the ligand. For proteins with multiple ligand-binding sites, P was expanded as described in Equations 21-36 below.
(§4) By thermodynamic linkage, any change in ΔGU caused predominantly by ligand binding (Scheme 1) is ΔGbind=ΔΔ^LGU=Δ^LGU−Δ^apoGU [20] where Δ^LGU and Δ^apoGU were the stability of the protein in the presence of absence of ligand respectively. Equation 20 was used to obtain apparent KD values from either the ligand dependence of ΔΔGU (by curve fitting), or from a single measurement of ΔΔGU.

[2] = molecular target: T2, Staphylococcal nuclease (SN) (Staphylococcus aureus, UniProt P00644); assay type: binding; conditions: SN/L36C; 35.3 °C; from single ΔΔGU measurement; read-out: apparent KD (binary complex)
T2 construct: made in house; host or cells: cell-free TnT, E. coli BL21 Star (DE3) extract
Procedure: as §1, §2, §3, §4

SN = SN (Staphylococcus aureus, UniProt P00644); conditions: cited from earlier work
[3] = Intrinsic reaction rate of IAM-biotin with unprotected cysteine (GSH), iodide absorbance at 226 nm; assay type: physicochemical; conditions: pH 7.6; for pseudo-first order rate constant (kint): 80 μM IAM-biotin, 800 μM GSH
Procedure: FIGS. 10A-C show the determination of kint in model compounds and unfolded SN.
The iodoacetyl moiety of IAM-biotin (EZ-Link™ Iodoacetyl-PEG2-Biotin; Pierce; 21334) reacts primarily with free thiolate to form a stable thioether bond. Because thiolate was the predominant reactive species, the reaction rate was dependent on the pKa of cysteine (˜8.6) relative to solution pH (which was set to 7.6). The kint values reported here were only valid for pH 7.6. kint was determined for an unprotected cysteine by reacting IAM-biotin with L-glutathione (GSH) (Sigma; G4251) and monitoring the absorbance of the liberated iodide ion (ϵ226=12,600M^−1 cm^−1 at 226 nm) as function of time. Second-order rate constants for the reaction of IAM-biotin with GSH were measured under pseudo first-order conditions at 25° C., 35° C., 45° C. and 55° C. (80 μM IAM-biotin, 800 μM GSH, 25 mM MOPS, 100 mM KCl and pH 7.6) and analyzed in terms of the Arrhenius equation (see FIG. 10).

[4] = molecular target: T3, E. coli ribose-binding protein (ecRBP) (Escherichia coli, UniProt P02925, A213C/T28W); experiment: biochemical; conditions: for ΔG / ΔΔG / kex: ecRBP.A188C, 54.6 °C; for kex: 1.00E−03 M IAM
T3 construct: made in house; host or cells: cell-free TnT, E. coli BL21 Star (DE3) extract
Procedure: as §1, §2, §3, §4

[5] = molecular target: T4, E. coli ribose-binding protein (ecRBP) (Escherichia coli, UniProt P02925, L86C/T28W); experiment: biochemical; conditions: for ΔG / ΔΔG / kex: ecRBP.L62C, 48.9 °C; for kex: 1.00E−03 M IAM
T4 construct: made in house; host or cells: cell-free TnT, E. coli BL21 Star (DE3) extract
Procedure: as §1, §2, §3, §4

[6] = Quantitative cysteine reactivity (QCR): protein stability, temperature dependence of ΔGU; assay type: physicochemical; conditions: for ΔHm: Gibbs-Helmholtz fit, ΔCp assigned a priori; for ΔG°U at 25° C.: ecRBP mutants, Gibbs-Helmholtz extrapolation; for apparent Tm below wild-type: versus literature wild-type Tm
Procedure: as §1
Following staining with GelCode™ Blue Stain reagent (Thermo Scientific; 24592), gel images were digitized and band intensities quantified by densitometry (ImageJ; Rasband (1997-2009), U.S. National Institutes of Health, Bethesda, Md.) and fit to a single exponential to derive klabel. When designing QCR experiments, consideration was given to the degradation of the iodoacetyl moiety of IAM-biotin, which was dependent on time, exposure to light, and temperature. […] At higher temperatures the degradation of IAM-biotin is taken into account, primarily by limiting the labeling reaction to less than ˜90 min.
[formula] applies only if the labeling conditions were fully in the EX2 limit, when kclose>>kint. As labeling reagent concentration increases, kint increases concomitantly and eventually kint will become equal to or greater than kclose. Under these conditions, the observed labeling rate was determined solely by kopen and klabel and was no longer a measure of stability. The reagent concentration and environmental conditions (i.e. pH and temperature) at which EX2 conditions no longer apply varies according to the (un)folding kinetics of the protein. A simple test of reaction mechanism was to change reagent concentration and remeasure the kinetics: EX2 conditions were satisfied if the change in the observed labeling rate was proportional to the change in reagent concentration (see FIG. 9).
The QCR experiment was designed to determine the Gibbs free energy of global protein unfolding by measuring the reactivity of wild-type or mutant cysteines buried in a hydrophobic core. […] These mutant proteins were produced in 200 μL batches by cell-free coupled transcription and translation in E. coli extract. […] This approach uses approximately 0.5 picomoles (˜10 nanograms) of protein per time point and can use a variety of thiol-reactive reagents that alter electrophoretic mobility or were highly fluorescent.
The QCR method exploits the conformational fluctuations of a protein to measure conformational free energy. Cysteines that were protected in the folded ensemble can be modified by thiol-reactive probe only by complete exposure to bulk solvent by transient unfolding reactions, as described by a two-step reaction scheme:
Unfolding free energies (ΔGU) can be determined under EX2 conditions (kclose>>kint) by measuring klabel, the rate constant for labeling a protected cysteine at a specified concentration of thiol probe [P]

[7] = second-order rate constants 25-55 °C

T4 sequence (P02925 other isoform, or with tags, fused parts or gaps T28W/L86C): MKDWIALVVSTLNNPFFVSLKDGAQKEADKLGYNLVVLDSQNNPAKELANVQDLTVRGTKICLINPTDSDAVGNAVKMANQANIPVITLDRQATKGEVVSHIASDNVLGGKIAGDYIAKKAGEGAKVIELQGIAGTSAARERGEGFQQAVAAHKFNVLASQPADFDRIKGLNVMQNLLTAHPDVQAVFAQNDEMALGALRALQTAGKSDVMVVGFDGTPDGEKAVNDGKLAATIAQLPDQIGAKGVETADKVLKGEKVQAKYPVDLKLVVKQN
T3 sequence (P02925 other isoform, or with tags, fused parts or gaps T28W/A213C): as the sequence (P02925 other isoform, or with tags, fused parts or gaps T28W/L86C) above, with C62L, A189C counted along it

For `[Ca+2]` [Ca^2+], the “increase in stability (ΔΔGU) of SN/L36C” value [1] is listed as 2.5 ± 0.84 kJ/mol, the Kd [2] is listed as 600 ± 200 µM and the Kd (SN; Ca2+ and pdTp synergistic, read-out: affinity for SN in the presence of the other ligand) is listed as ~2 µM. For the same molecule, the Kd (SN; Serpersu et al. 1986, read-out: affinity for SN, ligand by itself) was ~500 µM.

With `O=C(CI)NCCOCCOCCNC(=O)CCCC[C@@H]1SC[C@@H]2NC(=O)N[C@@H]21` [IAM-biotin, EZ-Link™ Iodoacetyl-PEG2-Biotin] the “pseudo-first order rate constant (kint)” value ([3]; 25 °C, 25 mM MOPS, 100 mM KCl) was 0.00062 s⁻¹, the “second order rate constant (k=kint/[GSH])” value (“second order rate constant” for short) ([3]; 25 °C) was 0.78 M⁻¹ s⁻¹ and the “pseudo-first order rate constant (kint)” value ([3]; 35 °C) was 0.00016 s⁻¹. For the same molecule, the “second order rate constant” value ([3]; 35 °C) was 2.0 M⁻¹ s⁻¹, the “pseudo-first order rate constant (kint)” value ([3]; 45 °C) was 0.0035 s⁻¹ and the “second order rate constant” value ([3]; 45 °C) was 4.4 M⁻¹ s⁻¹. For the same molecule, the “pseudo-first order rate constant (kint)” value ([3]; 55 °C) was 0.0077 s⁻¹, the “second order rate constant” value ([3]; 55 °C) was 9.6 M⁻¹ s⁻¹ and the “Arrhenius pre-exponential factor (ln A), IAM-biotin + GSH” value [3, 7] was 27.1±0.5. For the same molecule, the “Arrhenius slope (−Ea/R), IAM-biotin + GSH” value [3, 7] was −8.2×10^3±0.1×10^3.

For `O=C[C@H](O)[C@H](O)[C@H](O)CO` [ribose, reference compound], the Kd [4] was 1.8 ± 0.1 µM and the Kd [5] was 2.8 ± 0.2 µM.

B1: ecRBP.L62C: E. coli ribose-binding protein variant L62C (SEQ ID NO:12) (protein, listed as Escherichia coli)
chain: MKDTIALVVSTLNNPFFVSLKDGAQKEADKLGYNLVVLDSQNNPAKELANVQDLTVRGTKICLINPTDSDAVGNAVKMANQANIPVITLDRQATKGEVVSHIASDNVLGGKIAGDYIAKKAGEGAKVIELQGIAGTSAARERGEGFQQAVAAHKFNVLASQPADFDRIKGLNVMQNLLTAHPDVQAVFAQNDEMALGALRALQTAGKSDVMVVGFDGTPDGEKAVNDGKLAATIAQLPDQIGAKGVETADKVLKGEKVQAKYPVDLKLVVKQNGGSHHHHHH
With B1 the “apparent Tm” value ([6]; Gibbs-Helmholtz fit of QCR ΔGU(T)) was 54±1 °C, the ΔHm [6] was 339 ± 8.4 kJ/mol and the “ΔG°U at 25° C.” value [6] was 13.4 ± 0.42 kJ/mol. For the same molecule, the “apparent Tm below wild-type” value [6] was ~8 °C, the ΔG ([5]; [Ligand] 0 μM) was 4.18 kJ/mol and the ΔΔG ([5]; [Ligand] 0 μM) was 0 kJ/mol. For the same molecule, the kex ([5]; [Ligand] 0 μM) was 0.0099 s⁻¹, the ΔG ([5]; [Ligand] 1.5 μM (ribose)) was 6.28 kJ/mol and the ΔΔG ([5]; [Ligand] 1.5 μM (ribose)) was 2.1 kJ/mol. For the same molecule, the kex ([5]; [Ligand] 1.5 μM (ribose)) was 0.0051 s⁻¹, the ΔG ([5]; [Ligand] 3 μM (ribose)) was 7.53 kJ/mol and the ΔΔG ([5]; [Ligand] 3 μM (ribose)) was 2.9 kJ/mol. For the same molecule, the kex ([5]; [Ligand] 3 μM (ribose)) was 0.0036 s⁻¹, the ΔG ([5]; [Ligand] 6 μM (ribose)) was 9.2 kJ/mol and the ΔΔG ([5]; [Ligand] 6 μM (ribose)) was 5.02 kJ/mol. For the same molecule, the kex ([5]; [Ligand] 6 μM (ribose)) was 0.00019 s⁻¹, the ΔG ([5]; [Ligand] 12 μM (ribose)) was 10.9 kJ/mol and the ΔΔG ([5]; [Ligand] 12 μM (ribose)) was 6.28 kJ/mol. It also gave a kex ([5]; [Ligand] 12 μM (ribose)) of 0.00011 s⁻¹, a ΔG ([5]; [Ligand] 24 μM (ribose)) of 11.3 kJ/mol and a ΔΔG ([5]; [Ligand] 24 μM (ribose)) of 6.69 kJ/mol. It also gave a kex ([5]; [Ligand] 24 μM (ribose)) of 0.00091 s⁻¹.

B2: ecRBP.A188C (protein, UniProt P02925 26-296, looked up, variant A188C)
Ribose import binding protein …: KDTIALVVSTLNNPFFVSLKDGAQKEADKLGYNLVVLDSQNNPAKELANVQDLTVRGTKILLINPTDSDAVGNAVKMANQANIPVITLDRQATKGEVVSHIASDNVLGGKIAGDYIAKKAGEGAKVIELQGIAGTSAARERGEGFQQAVAAHKFNVLASQPADFDRIKGLNVMQNLLTAHPDVQAVFCQNDEMALGALRALQTAGKSDVMVVGFDGTPDGEKAVNDGKLAATIAQLPDQIGAKGVETADKVLKGEKVQAKYPVDLKLVVKQ
In the case of B2, the ΔHm [6] is reported as 381 ± 17 kJ/mol, the “ΔG°U at 25° C.” value [6] is reported as 17.2 ± 0.42 kJ/mol and the “apparent Tm below wild-type” value [6] is reported as ~8 °C. For the same molecule, the ΔG ([4]; [Ligand] 0 μM) was 3.3 kJ/mol, the ΔΔG ([4]; [Ligand] 0 μM) was 0 kJ/mol and the kex ([4]; [Ligand] 0 μM) was 0.00217 s⁻¹. It also gave a ΔG ([4]; [Ligand] 1.5 μM (ribose)) of 4.6 kJ/mol, a ΔΔG ([4]; [Ligand] 1.5 μM (ribose)) of 1.3 kJ/mol and a kex ([4]; [Ligand] 1.5 μM (ribose)) of 0.00141 s⁻¹. It also gave a ΔG ([4]; [Ligand] 3 μM (ribose)) of 5.86 kJ/mol, a ΔΔG ([4]; [Ligand] 3 μM (ribose)) of 2.5 kJ/mol and a kex ([4]; [Ligand] 3 μM (ribose)) of 0.00097 s⁻¹. For the same molecule, the ΔG ([4]; [Ligand] 6 μM (ribose)) was 6.69 kJ/mol, the ΔΔG ([4]; [Ligand] 6 μM (ribose)) was 3.3 kJ/mol and the kex ([4]; [Ligand] 6 μM (ribose)) was 0.00073 s⁻¹. The ΔG ([4]; [Ligand] 12 μM (ribose)) was 9.2 kJ/mol, the ΔΔG ([4]; [Ligand] 12 μM (ribose)) was 5.86 kJ/mol and the kex ([4]; [Ligand] 12 μM (ribose)) was 0.00032 s⁻¹. The ΔG ([4]; [Ligand] 24 μM (ribose)) was 10.5 kJ/mol, the ΔΔG ([4]; [Ligand] 24 μM (ribose)) was 7.11 kJ/mol and the kex ([4]; [Ligand] 24 μM (ribose)) was 0.00019 s⁻¹.
